Consider one variant from IntAct's records for PubMed 16488394.

The chains are these.
B1: Actin nucleation-promoting factor WAS (Homo sapiens), P42768 (parent)
chain: MSGGPMGGRPGGRGAPAVQQNIPSTLLQDHENQRLFEMLGRKCLTLATAVVQLYLALPPGAEHWTKEHCGAVCFVKDNPQKSYFIRLYGLQAGRLLWEQELYSQLVYSTPTPFFHTFAGDDCQAGLNFADEDEAQAFRALVQEKIQKRNQRQSGDRRQLPPPPTPANEERRGGLPPLPLHPGGDQGGPPVGPLSLGLATVDIQNPDITSSRYRGLPAPGPSPADKKRSGKKKISKADIGAPSGFKHVSHVGWDPQNGFDVNNLDPDLRSLFSRAGISEAQLTDAETSKLIYDFIEDQGGLEAVRQEMRRQEPLPPPPPPSRGGNQLPRPPIVGGNKGRSGPLPPVPLGIAPPPPTPRGPPPPGRGGPPPPPPPATGRSGPLPPPPPGAGGPPMPPPPPPPPPPPSSGNGPAPPPLPPALVPAGGLAPGGGRGALLDQIRQGIQLNKTPGAPESSALQPPPQSSEGLVGALMHVMQKRSRAIHSSDEGEDQAGDEDEDDEWDD

This assay covers variants of B1. The following applies: with wipf1_human WIPF1, O43516.
Chain of wipf1_human WIPF1, O43516 (O43516 whole entry): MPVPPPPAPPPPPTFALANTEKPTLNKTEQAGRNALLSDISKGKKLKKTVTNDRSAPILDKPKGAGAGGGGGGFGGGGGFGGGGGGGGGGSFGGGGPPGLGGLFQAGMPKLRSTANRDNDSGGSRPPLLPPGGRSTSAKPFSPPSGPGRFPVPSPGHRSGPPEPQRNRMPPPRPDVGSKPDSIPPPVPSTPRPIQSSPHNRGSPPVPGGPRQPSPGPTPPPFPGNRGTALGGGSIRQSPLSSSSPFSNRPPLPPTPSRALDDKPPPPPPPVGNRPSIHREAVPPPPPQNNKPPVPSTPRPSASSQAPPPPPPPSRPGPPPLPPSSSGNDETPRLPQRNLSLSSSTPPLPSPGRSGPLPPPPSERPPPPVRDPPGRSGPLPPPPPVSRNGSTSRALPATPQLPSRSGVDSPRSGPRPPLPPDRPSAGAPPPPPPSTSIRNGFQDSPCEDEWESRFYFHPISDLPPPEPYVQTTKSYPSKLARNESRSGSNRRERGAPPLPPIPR
For A134T, the “effect of a mutation on the interaction” value is given as “decreasing interaction”.
